Experimental data: PMC3821671 (Bacteriophage, 2013)

Target: P167L Rho (E. coli, UniProt P0AG30 1-419, P167L)
Assay: pull-down

B1: his-tagged WT Psu (polarity suppression protein, bacteriophage P4 capsid decorating protein) (natural protein)
chain: MESTALQQAFDTCQNNKAAWLQRKNELAAAEQEYLRLLSGEGRNVSRLDELRNIIEVRKWQVNQAAGRYIRSHEAVQHISIRDRLNDFMQQHGTALAAALAPELMGYSELTAIARNCAIQRATDALREALLSWLAKGEKINYSAQDSDILTTIGFRPDVASVDDSREKFTPAQNMIFSRKSAQLASRQSV
binding result: binds
